Source: publication PMC5591277

Tests used:
[1] = target: T1, Lsm2-8 complex (Saccharomyces cerevisiae) (UniProt P38203+P57743+P40070+P40089+Q06406+P53905+P47093); test: EMSA; settings: Bmax 100%, EMSA: 5 nM Cy3-U6, 100 mM KCl, 20% sucrose, 20 mM bis-tris/10 mM HCl, 1 mM EDTA, 1 mM TCEP, 0.01% Triton X-100, 0.1 mg/mL tRNA, 0.01 mg/mL heparin
T1 sequence 1: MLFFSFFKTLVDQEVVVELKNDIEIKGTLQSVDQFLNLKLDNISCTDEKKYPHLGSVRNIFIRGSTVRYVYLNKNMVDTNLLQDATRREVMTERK
T1 sequence 2: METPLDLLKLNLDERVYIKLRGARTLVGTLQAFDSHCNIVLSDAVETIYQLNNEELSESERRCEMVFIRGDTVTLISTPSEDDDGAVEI
T1 sequence 3: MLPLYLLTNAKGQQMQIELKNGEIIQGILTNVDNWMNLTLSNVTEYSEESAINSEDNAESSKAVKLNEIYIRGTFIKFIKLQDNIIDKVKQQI
T1 sequence 4: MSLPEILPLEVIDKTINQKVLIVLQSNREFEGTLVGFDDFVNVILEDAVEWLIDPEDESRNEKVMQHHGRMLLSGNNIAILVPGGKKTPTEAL
T1 sequence 5: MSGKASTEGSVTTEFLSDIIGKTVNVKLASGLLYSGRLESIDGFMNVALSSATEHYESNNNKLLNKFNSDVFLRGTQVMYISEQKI
T1 sequence 6: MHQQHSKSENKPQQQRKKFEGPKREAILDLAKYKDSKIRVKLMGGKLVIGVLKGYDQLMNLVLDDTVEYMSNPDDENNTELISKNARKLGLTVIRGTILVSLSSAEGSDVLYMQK
T1 sequence 7: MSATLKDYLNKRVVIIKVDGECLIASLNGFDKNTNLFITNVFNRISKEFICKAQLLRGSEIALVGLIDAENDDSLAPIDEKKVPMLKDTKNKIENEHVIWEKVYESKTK

[2] = target: T2, Lhp1 (yeast La protein) (Saccharomyces cerevisiae) (UniProt P33399); test: EMSA; settings: Bmax 75%, 2',3'-cis-diol end, EMSA: 5 nM Cy3-U6, 100 mM KCl, 20% sucrose, 20 mM bis-tris/10 mM HCl, 1 mM EDTA, 1 mM TCEP, 0.01% Triton X-100, 0.1 mg/mL tRNA, 0.01 mg/mL heparin
T2 sequence: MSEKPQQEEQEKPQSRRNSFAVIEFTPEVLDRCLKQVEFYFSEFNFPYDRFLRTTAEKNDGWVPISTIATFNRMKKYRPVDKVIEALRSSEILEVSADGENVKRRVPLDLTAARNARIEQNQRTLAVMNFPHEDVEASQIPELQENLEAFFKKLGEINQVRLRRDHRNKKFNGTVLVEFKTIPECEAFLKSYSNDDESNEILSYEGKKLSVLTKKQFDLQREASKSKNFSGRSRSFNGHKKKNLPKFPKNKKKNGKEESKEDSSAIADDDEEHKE

In the case of U6 1-112+1U>p, the Kd ([1]; 2',3'-cyclic phosphate) is reported as 70 nM.

Work on U6 1-112+1U 3'OH yielded a Kd [2] of 12 nM and a Kd ([1]; 2',3'-cis-diol end) of 30 nM.

Substance U6 1-112 3'OH has a Kd [2] of 18 nM and a Kd ([1]; 2',3'-cis-diol end) of 210 nM.
